In the oligonucleotide strings, read from the 5' end, every base follows the letter of its sugar. An asterisk marks phosphorothioate; unmarked linkages are phosphodiester. Other units and linkages are bracketed, terminal groups are in braces. A string of capitals states the bases alone. d = 2'-deoxy (DNA)
Key:
pAURHYG(x)eGFP [1] = test: Strand bias of hygromycin gene correction in rad1 and rad10 yeast mutants
pAURHYG(rep)eGFP [2] = test: In vivo correction of episomal pAURHYG(rep)eGFP in yeast, hygromycin-resistant colonies; conditions: for Average colony count on hygromycin plates / hygromycin-resistant colonies per aureobasidin-resistant colony: wild-type LSY678; for Colonies on Hygromycin / Correction Efficiency / Fold: 5 μg oligo
CYC1 gene = CYC1 gene repair in diploid yeast strains, growth on glycerol (YPG); conditions: YMH55; 5 μg oligo
pAURHYG(x)eGFP [3] = test: Hygromycin gene correction in yeast LSY678 with or without trichostatin A; conditions: 5 μg oligo
pAURHYG(rep)eGFP [4] = test: Correction of pAURHYG(rep)eGFP in yeast LSY678 with or without hydroxyurea; conditions: 5 μg oligo (1.62 μg Hyg10)
pAURHYG(ins)eGFP = test: In vivo correction of episomal pAURHYG(ins)eGFP in yeast; conditions: for Average colony count on hygromycin plates / hygromycin-resistant colonies per aureobasidin-resistant colony: wild-type LSY678; for Colonies on Hygromycin / Correction Efficiency / Fold: 5 μg oligo
[5] = Cells both pre-treated and treated during recovery with 50 μg/mL trichostatin A

B1: HygE3T/74: 74-base single-stranded DNA oligonucleotide, three phosphorothioate linkages at each end, SEQ ID NO: 8 (nucleic acid)
DNA: dC*dT*dC*dGdTdGdCdTdTdTdCdAdGdCdTdTdCdGdAdTdGdTdAdGdGdAdGdGdGdCdGdTdGdGdAdTdAdCdGdTdCdCdTdGdCdGdGdGdTdAdAdAdTdAdGdCdTdGdCdGdCdCdGdAdTdGdGdTdTdTdC*dT*dA*dC
pAURHYG(x)eGFP [1]; rad1 mutant
  Colonies on Hygromycin: 3
pAURHYG(x)eGFP [1]; rad10 mutant
  Colonies on Hygromycin: 2
pAURHYG(rep)eGFP [2]; 1.0 μg oligo
  Average colony count on hygromycin plates: 5
  hygromycin-resistant colonies per aureobasidin-resistant colony: 0.03
pAURHYG(rep)eGFP [2]; 2.5 μg oligo
  Average colony count on hygromycin plates: 99
  hygromycin-resistant colonies per aureobasidin-resistant colony: 0.61
pAURHYG(rep)eGFP [2]; 5.0 μg oligo
  Average colony count on hygromycin plates: 204
  hygromycin-resistant colonies per aureobasidin-resistant colony: 1.26
pAURHYG(rep)eGFP [2]; 7.5 μg oligo
  Average colony count on hygromycin plates: 69
  hygromycin-resistant colonies per aureobasidin-resistant colony: 0.42
pAURHYG(rep)eGFP [2]; 10.0 μg oligo
  Average colony count on hygromycin plates: 19
  hygromycin-resistant colonies per aureobasidin-resistant colony: 0.12
pAURHYG(rep)eGFP [2]; Msh2 mutant
  Colonies on Hygromycin: 0
  Correction Efficiency: 0
  Fold: 0x
pAURHYG(rep)eGFP [2]; Msh3 mutant
  Colonies on Hygromycin: 0
  Correction Efficiency: 0
  Fold: 0x
pAURHYG(rep)eGFP [2]; Msh6 mutant
  Colonies on Hygromycin: 1,270
  Correction Efficiency: 2.35
  Fold: 0.55x
pAURHYG(rep)eGFP [2]; Pms1 mutant
  Colonies on Hygromycin: 2,280
  Correction Efficiency: 114
  Fold: 26.76x
pAURHYG(rep)eGFP [2]; Rad1 mutant
  Colonies on Hygromycin: 1,380
  Correction Efficiency: 8.52
  Fold: 2.00x
pAURHYG(rep)eGFP [2]; Rad2 mutant
  Colonies on Hygromycin: 919
  Correction Efficiency: 3.78
  Fold: 0.89x
pAURHYG(rep)eGFP [2]; exo1 mutant
  Colonies on Hygromycin: 486
  Correction Efficiency: 3.92
  Fold: 0.92x
pAURHYG(rep)eGFP [2]; mre11 mutant
  Colonies on Hygromycin: 12
  Correction Efficiency: 0.63
  Fold: 0.15x
pAURHYG(rep)eGFP [2]; rad10 mutant
  Colonies on Hygromycin: 54
  Correction Efficiency: 0.15
  Fold: 0.04x
pAURHYG(rep)eGFP [2]; rad23 mutant
  Colonies on Hygromycin: 66
  Correction Efficiency: 0.44
  Fold: 0.10x
pAURHYG(rep)eGFP [2]; rad50 mutant
  Colonies on Hygromycin: 336
  Correction Efficiency: 2.09
  Fold: 0.49x
pAURHYG(rep)eGFP [2]; rad51/52 mutant
  Colonies on Hygromycin: 212
  Correction Efficiency: 5.45
  Fold: 1.28x
pAURHYG(rep)eGFP [2]; rad51 mutant
  Colonies on Hygromycin: 104
  Correction Efficiency: 0.62
  Fold: 0.14x
pAURHYG(rep)eGFP [2]; rad52 mutant
  Colonies on Hygromycin: 266
  Correction Efficiency: 3.29
  Fold: 0.77x
pAURHYG(rep)eGFP [2]; rad54 mutant
  Colonies on Hygromycin: 2
  Correction Efficiency: 0.02
  Fold: 0x
pAURHYG(rep)eGFP [2]; rad55 mutant
  Colonies on Hygromycin: 0
  Correction Efficiency: 0
  Fold: 0x
pAURHYG(rep)eGFP [2]; rad57 mutant
  Colonies on Hygromycin: 984
  Correction Efficiency: 17.26
  Fold: 4.05x
pAURHYG(rep)eGFP [2]; rad59 mutant
  Colonies on Hygromycin: 1,198
  Correction Efficiency: 3.06
  Fold: 0.71x
pAURHYG(rep)eGFP [2]; wild type
  Colonies on Hygromycin: 1,218
  Correction Efficiency: 4.26
  Fold: 1x
pAURHYG(rep)eGFP [2]; xrs2 mutant
  Colonies on Hygromycin: 29
  Correction Efficiency: 0.66
  Fold: 0.15x
CYC1 gene
  C.E.: 0 ×10^−4
  No. of YPG Plate Colonies: 0
pAURHYG(x)eGFP [3]; [5]
  Correction Efficiency: 2.05 1/10^5
  Hyg^r: 230
pAURHYG(x)eGFP [3]; Cells treated during recovery with 50 μg/mL trichostatin A
  Correction Efficiency: 0.34 1/10^5
pAURHYG(x)eGFP [3]; No treatment
  Correction Efficiency: 0.16 1/10^5
pAURHYG(rep)eGFP [4]; 20 mM hydroxyurea 4 h pre-treatment, growth time 10 min
  Correction Efficiency: 3.1 hygromycin resistant colonies
pAURHYG(rep)eGFP [4]; 20 mM hydroxyurea 4 h pre-treatment, growth time 20 min
  Correction Efficiency: 4.9 hygromycin resistant colonies
pAURHYG(rep)eGFP [4]; 20 mM hydroxyurea 4 h pre-treatment, growth time 40 min
  Correction Efficiency: 9.5 hygromycin resistant colonies
pAURHYG(rep)eGFP [4]; 20 mM hydroxyurea 4 h pre-treatment, growth time 60 min
  Correction Efficiency: 7.8 hygromycin resistant colonies
pAURHYG(rep)eGFP [4]; 20 mM hydroxyurea 4 h pre-treatment, growth time 90 min
  Correction Efficiency: 22.4 hygromycin resistant colonies
pAURHYG(rep)eGFP [4]; no hydroxyurea, growth time 10 min
  Correction Efficiency: 0.15 hygromycin resistant colonies
pAURHYG(rep)eGFP [4]; no hydroxyurea, growth time 20 min
  Correction Efficiency: 2.9 hygromycin resistant colonies
pAURHYG(rep)eGFP [4]; no hydroxyurea, growth time 40 min
  Correction Efficiency: 3.4 hygromycin resistant colonies
pAURHYG(rep)eGFP [4]; no hydroxyurea, growth time 60 min
  Correction Efficiency: 2.32 hygromycin resistant colonies
pAURHYG(rep)eGFP [4]; no hydroxyurea, growth time 90 min
  Correction Efficiency: 0.56 hygromycin resistant colonies
pAURHYG(ins)eGFP; 1.0 μg oligo
  Average colony count on hygromycin plates: 5
  hygromycin-resistant colonies per aureobasidin-resistant colony: 0.03
pAURHYG(ins)eGFP; 2.5 μg oligo
  Average colony count on hygromycin plates: 47
  hygromycin-resistant colonies per aureobasidin-resistant colony: 0.29
pAURHYG(ins)eGFP; 5.0 μg oligo
  Average colony count on hygromycin plates: 199
  hygromycin-resistant colonies per aureobasidin-resistant colony: 1.24
pAURHYG(ins)eGFP; 7.5 μg oligo
  Average colony count on hygromycin plates: 54
  hygromycin-resistant colonies per aureobasidin-resistant colony: 0.34
pAURHYG(ins)eGFP; 10.0 μg oligo
  Average colony count on hygromycin plates: 17
  hygromycin-resistant colonies per aureobasidin-resistant colony: 1.10
pAURHYG(ins)eGFP; Exo1 mutant
  Colonies on Hygromycin: 2
  Correction Efficiency: 0.01
  Fold: 0x
pAURHYG(ins)eGFP; mre11 mutant
  Colonies on Hygromycin: 3
  Correction Efficiency: 0.09
  Fold: 0.03x
pAURHYG(ins)eGFP; msh2 mutant
  Colonies on Hygromycin: 0
  Correction Efficiency: 0
  Fold: 0x
pAURHYG(ins)eGFP; msh3 mutant
  Colonies on Hygromycin: 1
  Correction Efficiency: 0.05
  Fold: 0.02x
pAURHYG(ins)eGFP; msh6 mutant
  Colonies on Hygromycin: 0
  Correction Efficiency: 0
  Fold: 0x
pAURHYG(ins)eGFP; pms1 mutant
  Colonies on Hygromycin: 111
  Correction Efficiency: 18.5
  Fold: 5.35x
pAURHYG(ins)eGFP; rad1 mutant
  Colonies on Hygromycin: 52
  Correction Efficiency: 0.59
  Fold: 0.17x
pAURHYG(ins)eGFP; rad2 mutant
  Colonies on Hygromycin: 113
  Correction Efficiency: 1.79
  Fold: 0.52x
pAURHYG(ins)eGFP; rad10 mutant
  Colonies on Hygromycin: 14
  Correction Efficiency: 0.14
  Fold: 0.04x
pAURHYG(ins)eGFP; rad23 mutant
  Colonies on Hygromycin: 1
  Correction Efficiency: 0.01
  Fold: 0x
pAURHYG(ins)eGFP; rad50 mutant
  Colonies on Hygromycin: 1
  Correction Efficiency: 0.06
  Fold: 0.02x
pAURHYG(ins)eGFP; rad51/52 mutant
  Colonies on Hygromycin: 3
  Correction Efficiency: 0.3
  Fold: 0.01x
pAURHYG(ins)eGFP; rad51 mutant
  Colonies on Hygromycin: 19
  Correction Efficiency: 0.59
  Fold: 0.17x
pAURHYG(ins)eGFP; rad52 mutant
  Colonies on Hygromycin: 31
  Correction Efficiency: 0.86
  Fold: 0.24x
pAURHYG(ins)eGFP; rad54 mutant
  Colonies on Hygromycin: 0
  Correction Efficiency: 0
  Fold: 0x
pAURHYG(ins)eGFP; rad55 mutant
  Colonies on Hygromycin: 0
  Correction Efficiency: 0
  Fold: 0X
pAURHYG(ins)eGFP; rad57 mutant
  Colonies on Hygromycin: 34
  Correction Efficiency: 0.33
  Fold: 0.10x
pAURHYG(ins)eGFP; rad59 mutant
  Colonies on Hygromycin: 116
  Correction Efficiency: 2.47
  Fold: 0.71x
pAURHYG(ins)eGFP; wild type
  Colonies on Hygromycin: 256
  Correction Efficiency: 3.46
  Fold: 1x
pAURHYG(ins)eGFP; xrs2 mutant
  Colonies on Hygromycin: 6
  Correction Efficiency: 0.04
  Fold: 0.01x
